The test has as its target T1, FHHDbf2-H6Mob1TM9 (Saccharomyces cerevisiae, UniProt P22204+P40484).
T1 construct: made in house; host or cells: Hi5 insect cells (baculovirus)
T1 sequence (P22204 1-572): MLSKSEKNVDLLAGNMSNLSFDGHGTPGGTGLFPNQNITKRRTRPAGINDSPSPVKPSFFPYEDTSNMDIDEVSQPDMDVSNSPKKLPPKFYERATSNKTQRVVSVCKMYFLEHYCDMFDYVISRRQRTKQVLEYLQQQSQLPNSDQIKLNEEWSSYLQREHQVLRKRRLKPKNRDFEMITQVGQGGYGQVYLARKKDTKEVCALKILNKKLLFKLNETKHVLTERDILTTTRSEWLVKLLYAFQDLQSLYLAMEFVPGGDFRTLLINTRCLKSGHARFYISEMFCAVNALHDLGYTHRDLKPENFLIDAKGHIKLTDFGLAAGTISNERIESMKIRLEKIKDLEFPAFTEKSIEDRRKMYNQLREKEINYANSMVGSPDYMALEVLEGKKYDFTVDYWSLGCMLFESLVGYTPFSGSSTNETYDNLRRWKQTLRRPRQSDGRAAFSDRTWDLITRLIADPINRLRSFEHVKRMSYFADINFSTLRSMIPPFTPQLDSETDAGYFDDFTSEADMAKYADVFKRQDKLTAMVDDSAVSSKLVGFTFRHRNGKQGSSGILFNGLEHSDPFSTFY
T1 sequence (P40484 1-314 partner): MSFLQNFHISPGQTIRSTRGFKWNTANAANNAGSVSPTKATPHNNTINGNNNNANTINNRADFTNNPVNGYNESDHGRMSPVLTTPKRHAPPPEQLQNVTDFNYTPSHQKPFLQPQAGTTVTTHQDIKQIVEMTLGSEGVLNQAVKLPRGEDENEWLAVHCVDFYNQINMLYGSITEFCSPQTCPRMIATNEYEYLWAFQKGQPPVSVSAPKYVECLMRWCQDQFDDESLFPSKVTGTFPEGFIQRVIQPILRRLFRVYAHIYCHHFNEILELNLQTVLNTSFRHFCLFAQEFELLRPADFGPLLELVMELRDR
Nature of the test: Yeast proteome chip assay. Format: biochemical. Conditions: [γ-33P]ATP, chips in duplicate. How it is done:
The relatively low sequence complexity of the Dbf2 phosphorylation motif diminished the power of using genome-wide bioinformatics screens to identify putative substrates. Accordingly, we carried out a proteome array screen to identify putative yeast substrates. […] After taking into account the proteins phosphorylated in the negative controls, 67 proteins were determined to be putative Dbf2-Mob1 substrates (Table 3).
Yeast proteome microarrays were prepared as previously described. Overexpressed GST-tagged yeast proteins were purified from ~4,400 yeast strains and spotted on slides. To determine the optimal amount of kinase to use for probing proteome chips, we performed trial assays as described (J. Ptacek et al., submitted). […] The full proteome array was probed with 4 μl ^FHHDbf2-^H6Mob1^TM9 in 200 μl of DKB supplemented with [γ-^33P]ATP. As a control, ^FHHDbf2(N305A)-^H6Mob1^TM9 was used to probe the proteome array. […] To control for autophosphorylated proteins, the proteome array was probed with 200 μl of DKB supplemented with [γ-^33P]ATP. Proteome chips were assayed in duplicate in each case. Data analysis was performed as described (J. Ptacek et al., submitted). Briefly, signals were analyzed by a computer algorithm designed to normalize background and identify signals as positive if 3 of 4 spots (each protein is spotted twice on each slide and each kinase or control was tested on 2 slides) were 2 standard deviations above background and the fourth spot was 1.5 standard deviations above background.

Where [1] appears, read: Table 3, GST fusion proteins on proteome chip, computer analysis.

B1: YMR072W: GST fusion yeast protein on proteome chip (protein, UniProt Q02486 27-183, looked up)
ARS-binding factor 2, …: KASKRTQLRNELIKQGPKRPTSAYFLYLQDHRSQFVKENPTLRPAEISKIAGEKWQNLEADIKEKYISERKKLYSEYQKAKKEFDEKLPPKKPAGPFIKYANEVRSQVFAQHPDKSQLDLMKIIGDKWQSLDQSIKDKYIQEYKKAIQEYNARYPLN
modifications: GST tag
notes: GST fusion yeast protein on proteome chip
Turning to B1, the “Slide Signal (after normalization)” value under setting [1] was 0.7585.

B2: YDL002C: GST fusion yeast protein on proteome chip (protein, UniProt Q03435 2-203, looked up)
Non-histone protein 10: SVEEKKRRLEELKDQNVVLGLAIQRSRLSVKRLKLEYGVLLERLESRIELDPELNCEDPLPTLASFKQELLTKPFRKSKTKRHKVKERDPNMPKRPTNAYLLYCEMNKERIRQNGSLDVTRDLAEGWKNLNEQDRKPYYKLYSEDRERYQMEMEIYNKKISNIDADDDKEENEQKIKNNEEGSSTKVADSKGGEDGSLVSSN
modifications: GST fusion
notes: as for B1
Consider B2, for which the “Slide Signal (after normalization)” value under setting [1] is 0.8102.

B3: YKL140W: GST fusion yeast protein on proteome chip (protein, UniProt P34163 1-548, looked up)
Sterol esterase TGL1: MYFPFLGRLSITDYIIVVLVYIESIISSVLKLIPQPMINLFEWLINFSTSSDDNTIEEKLRSAPTIHEMCAIFDISVEDHLVRTEDNYILTLHRIPPISKNRFNNKVVYLHHGLLMCSDVWCCNIERHKNLPFVLHDLGYDVWMGNNRGNKYSTAHLNKPPKSNKFWDFSIDEFAFFDIPNSIEFILDITKVDKVICIGFSQGSAQMFAAFSLSEKLNRKVSHFIAIAPAMTPKGLHNRIVDTLAKSSPGFMYLFFGRKIVLPSAVIWQRTLHPTLFNLCIDIANKILFNWKSFNILPRQKIASYAKLYSTTSVKSIVHWFQILRSQKFQMFEESDNMLNSLTRPYQIANFPTRTNIKIPILLIYGGIDSLVDIDVMKKNLPFNSVFDVKVDNYEHLDLIWGKDADTLVIAKVLRFIEFFNPGNVSVKTNQLLPSASLVEELPSTTWKTTHPTHGLSYRTHSADRSPLSVQADEADEVHNADNSRFLRRVFSTSAIDEDNENEHQDDTEDQIHKEQQRRLSAYLESSKDLRQLDANSSTTALDALNKE
modifications: GST tag
notes: as for B1
For B3, the “Slide Signal (after normalization)” value under setting [1] turned out to be 0.6321.

B4: YDL070W: GST fusion yeast protein on proteome chip (protein, UniProt Q07442 1-638, looked up)
Bromodomain-containing factor …: MSRTNMDTRHAHSALLAAPQSATANSRSSNSSSESSSNKNNINVGVGDDSGNVSAVSIDDGPHFRDIFHYGHEENYKLASSGITNLNSSSHAHQTLSPISISNASTPESFPEHPLGLERETEPALEAEMEAEELPPHQSKYLLSSIKATKRLKDARPFLKPVDPIALNIPHYFNYVQTPMDLSLIETKLQGNVYHSVEQVTSDFKTMVDNCLNFNGPESSISSMAKRIQKYFEKKLSAMPPRVLPASALKKTSRNRKKNEDMDSPLVIRRSVSTTNDNIGESGNREGVSGGRPKRTIHPPKSKDLFDIYENSKPKSKTLQKKFRTCLKILKVLMSKKNSDINFPFLQPVDPIALNLPNYFDVVKNPMDLGTISNNLMNWKYKTIDQFVDDLNLVFYNCFQFNPEGNEVHSMGKKLKELFNFHWLENQDILNEIETDSDLEEDNYSSSYSSDDEYDDEDINENDITNPAIQYLEQKLKKMEVELQQLKRQELSKLSKERKRKHLGKTLLRRKAMKHSVDDLKKSITDKINELSDLEMNGMIRIIKNSLPADEILTSNEDEIEIDLDILDEATIARIYERYFEKKNNNNSKRKLSGNYSTAPTNKKKKTLKFLEKDEIINNNNYSDSEEDSSDSSDSDSD
modifications: GST fusion
notes: as for B1
As to B4, under setting [1], the “Slide Signal (after normalization)” value is reported as 0.6162.

B5: YCR105W: GST fusion yeast protein on proteome chip (protein, UniProt P25377 1-361, looked up)
NADP-dependent alcohol …: MLYPEKFQGIGISNAKDWKHPKLVSFDPKPFGDHDVDVEIEACGICGSDFHIAVGNWGPVPENQILGHEIIGRVVKVGSKCHTGVKIGDRVGVGAQALACFECERCKSDNEQYCTNDHVLTMWTPYKDGYISQGGFASHVRLHEHFAIQIPENIPSPLAAPLLCGGITVFSPLLRNGCGPGKRVGIVGIGGIGHMGILLAKAMGAEVYAFSRGHSKREDSMKLGADHYIAMLEDKGWTEQYSNALDLLVVCSSSLSKVNFDSIVKIMKIGGSIVSIAAPEVNEKLVLKPLGLMGVSISSSAIGSRKEIEQLLKLVSEKNVKIWVEKLPISEEGVSHAFTRMESGDVKYRFTLVDYDKKFHK
modifications: GST fusion
notes: as for B1
As to B5, the “Slide Signal (after normalization)” value under setting [1] was 0.6146.

B6: YDL019C: GST fusion yeast protein on proteome chip (protein, UniProt Q12451 2-1283, looked up)
Oxysterol-binding protein …: SREDLSIAEDLNQVSKPLLKVKLLEVLGQGDFKHLKALVDNEFQPKDDPSVQQVLNLILHYAVQVAPILLIKEIVAHWVDQVGDEKSSSKSDDGIHLDLNYQDENGNTPLHLAAAQSRSDVISFLLSQKSINDCVKNKAHQQPLDMCKDLNVAQMIQLKRDDYFLETVHSLRAAMNKRDFSKLDSIWKNPRNLNLLDINGIDPETGTTLLYEYSQKKDIEMCQWLLKHGAEATVKDGKGRSPLDLVKNIKLPAKPSNNVTPEIKLKNLLEKNLREQAIVHEDVASSKPPTYKGFLKKWTNFAHGYKLRWFILSGDGNLSYYKDQSHVDRPRGTLKVSTCRLHIDSSEKLNFELLGGITGTTRWRLKGNHPIETTRWVNAIQSAIRFAKDKEILNKKKAVPPSLALKNKSPALISHSKTQGSLPEASQYYQHTLHKEVIQPSSVSLYRRPSNNLSVVSSEIQLNDNLTESGKRFVSKMIENRLDGSKTPVGVHTGSALQRVRSSNTLKSNRSMQSGSGVASPIDKVPNGANLSQSNTTTGSTASLSDNNYIDNFEGDEANSDDEEEDLGINFDRDEEYIKAQYGPYKEKLDMYEQAISIELSSLIELIEQEEPSPEVWLTIKKSLINTSTIFGKLKDLTYKRDKRLVDMVSKQGDVNNVWVQSVKELEMELSNKTERLASIDKERRGLKKILHKKLLESHATAGNKESLENDKEQESDTTASTLGQIAKFISATKEEDEASDADEFYDAAELVDEVTELTEAHPEISTAAAPKHAPPPVPNETDNDSQYVQDEKSKIESNVEKTSQKFEKQNNLVTEDEPKTDQSLKNFKAEDKESQVKEKTKEIASSVIGEKTIVAVTTVQKRKEEYLLKEGSYLGYEDGIRKRLSMDKDDRPKISLWAVLKSMVGKDMTRMTLPVTFNEPTSLLQRVAEDLEYSELLDQAATFEDSTLRTLYVAAFTASSYASTTKRVAKPFNPLLGETFEYSRPDKQYRFFTEQVSHHPPISATWTESPRWDFWGESFVDTKFNGRSFNVKHLGLWHIKLRPNDNEKEELYTWKKPNNTVIGILIGNPQVDNHGEVNVVNHTTGDHCKLYFKARGWRSSGAYEITGEVYNKKKQKVWILGGHWNEAIFAKKVVKDGDLSLEKTRTAASAGNGPTDDGTKFLIWKANDRPEEPFNLTPFAITLNAPQPHLLPWLPPTDTRLRPDQRAMEDGRYDEAGDEKFRVEEKQRAARRKREENNLEYHPQWFVRDTHPITKAKYWRYTGKYWVKRRDHDLKDCGDIF
modifications: GST fusion
notes: as for B1
Turning to B6, the “Slide Signal (after normalization)” value runs as follows: under setting [1], 0.9962; (Table 4, the 25 proteins with highest signal relative to protein amount) 0.9962.

These data come from PMC1277818, “Substrate specificity analysis of protein kinase complex Dbf2-Mob1 by peptide library and proteome array screening” (BMC Biochemistry, 2005).
